# Data from patent US20190100597A1.
# Target: human CD20 on CD20-expressing cell lines (human) (UniProt P11836)
# Test: cell-based or functional assay
# human CD20 on CD20-expressing cell lines (human), sequence (P11836 whole entry): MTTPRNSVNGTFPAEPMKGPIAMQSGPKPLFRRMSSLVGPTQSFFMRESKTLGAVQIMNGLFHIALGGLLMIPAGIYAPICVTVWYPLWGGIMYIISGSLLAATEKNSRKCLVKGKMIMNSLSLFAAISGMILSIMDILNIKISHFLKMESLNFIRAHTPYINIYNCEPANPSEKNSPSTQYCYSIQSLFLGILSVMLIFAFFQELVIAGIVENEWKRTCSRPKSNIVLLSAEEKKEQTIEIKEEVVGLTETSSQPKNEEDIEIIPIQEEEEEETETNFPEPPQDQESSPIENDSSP
# rituximab-derived anti-human CD20 IgM+J (antibody), sequence (heavy): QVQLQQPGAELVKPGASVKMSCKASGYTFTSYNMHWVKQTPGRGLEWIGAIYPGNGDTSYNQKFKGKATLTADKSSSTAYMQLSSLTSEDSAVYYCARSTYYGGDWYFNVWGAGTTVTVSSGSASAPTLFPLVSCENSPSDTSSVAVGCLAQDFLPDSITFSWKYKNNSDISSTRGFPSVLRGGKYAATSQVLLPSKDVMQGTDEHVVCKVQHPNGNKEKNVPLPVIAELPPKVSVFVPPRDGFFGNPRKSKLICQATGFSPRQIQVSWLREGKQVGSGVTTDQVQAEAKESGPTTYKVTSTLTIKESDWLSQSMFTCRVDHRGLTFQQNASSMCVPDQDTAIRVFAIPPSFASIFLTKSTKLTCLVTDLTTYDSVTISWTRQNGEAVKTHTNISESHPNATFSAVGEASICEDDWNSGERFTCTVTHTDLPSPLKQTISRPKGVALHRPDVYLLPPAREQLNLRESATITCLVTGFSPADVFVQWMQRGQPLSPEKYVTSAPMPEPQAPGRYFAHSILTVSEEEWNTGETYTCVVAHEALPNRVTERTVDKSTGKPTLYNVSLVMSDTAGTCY
# rituximab-derived anti-human CD20 IgM+J (antibody), sequence (light): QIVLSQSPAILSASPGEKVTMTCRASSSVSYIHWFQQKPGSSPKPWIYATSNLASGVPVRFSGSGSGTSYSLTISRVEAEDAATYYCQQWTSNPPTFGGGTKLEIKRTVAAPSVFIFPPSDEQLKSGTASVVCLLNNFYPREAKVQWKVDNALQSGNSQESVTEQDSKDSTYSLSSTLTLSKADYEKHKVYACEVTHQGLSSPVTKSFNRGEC
# rituximab-derived anti-human CD20 IgM+J (antibody), sequence (chain): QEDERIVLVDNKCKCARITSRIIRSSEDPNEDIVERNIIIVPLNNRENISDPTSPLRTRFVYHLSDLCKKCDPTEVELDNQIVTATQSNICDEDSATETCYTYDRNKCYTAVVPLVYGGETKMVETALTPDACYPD
substance,measurement,value
rituximab-derived anti-human CD20 IgM+J (antibody),CDC (IC50) on Raji cells,2 µg/mL
same,CDC EC50 on DOHH-2 cells,0.09 nM
same,CDC EC50 on Z-138 cells,0.41 nM
